# Results published in the supplement of paper PMC10567573.
# B1: APBB1IP (parent)
# chain: FNYSVGFKDLNESLNALEDQDLDA
# Variants of: B1
# Test: protein stability index of a GFP-peptide fusion (GPS, HEK-293T) (PSI 1-6); higher = more stable
# Conditions: c terminus: a fixed tail appended
# 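Also: lentivirally expressed fusions sorted by FACS into six bins by GFP to DsRed ratio, PSI derived from sequencing read proportions per bin multiplied by bin number.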
row,Variant,protein stability index
1,L17C,4.48
2,L17E,5.04
3,L17V,4.68
4,L17M,4.17
5,L17W,3.85
6,L17Y,3.96
7,L17I,4.68
8,L17N,5.02
9,L17A,4.63
10,L17S,4.78
11,L17G,4.51
12,L17H,4.18
13,L17F,4.43
14,L17K,4.48
15,L17R,5.01
16,L17Q,4.88
17,L17T,5.18
18,L17D,5.25
19,L17P,4.65
20,S4Y,3.42
21,S13W,2.85
22,S13G,4.58
23,S13D,4.31
24,S13I,2.88

row,Variant,protein stability index
1,S13C,4.25
2,S13E,3.95
3,S13Q,4.51
4,S13L,2.83
5,S13P,4.41
6,S13M,3.88
7,S13Y,3.54
8,S13T,3.72
9,S13V,3.67
10,S13N,4.17
11,S13R,4.15
12,S13A,4.56
13,S13K,3.8
14,S13H,4.51
15,S13F,3.34
16,Q20N,4.53
17,Q20G,4.57
18,Q20C,4.02
19,Q20E,4.69
20,Q20A,4.42
21,Q20R,3.21
22,Q20H,4.42
23,Q20I,3.97
24,Q20T,4.84

row,Variant,protein stability index
1,Q20S,3.97
2,Q20K,4.2
3,Q20M,3.7
4,Q20P,3.97
5,Q20L,3.88
6,Q20W,3.7
7,Q20V,4
8,Q20Y,3.85
9,Q20F,3.57
10,Q20D,4.4
11,L10V,4.86
12,L10Y,4.52
13,L10R,4.54
14,L10F,3.95
15,L10M,4.81
16,L10C,3.5
17,L10A,4.71
18,L10H,4.58
19,L10P,4.62
20,L10G,4.95
21,L10D,5.16
22,L10T,4.55
23,L10Q,4.93
24,L10S,5.06

row,Variant,protein stability index
1,L10W,3.95
2,L10I,4.26
3,L10N,4.75
4,L10E,5.09
5,L10K,4.88
6,K8L,3.17
7,K8C,3.36
8,K8S,4.56
9,K8G,4.65
10,K8P,4.79
11,K8R,4.33
12,K8D,5.05
13,K8E,5.1
14,K8Q,4.72
15,K8M,3.73
16,K8T,3.54
17,K8V,3.52
18,K8F,2.99
19,K8I,2.51
20,K8A,4.16
21,K8H,3.81
22,K8N,4.74
23,K8Y,3.58
24,K8W,2.27

row,Variant,protein stability index
1,D21W,2.43
2,D21R,3
3,D21F,2.34
4,D21C,3.57
5,D21I,2.81
6,D21Y,2.38
7,D21P,3.77
8,D21S,4.33
9,D21A,3.69
10,D21V,3.38
11,D21H,3.33
12,D21K,4.19
13,D21L,2.8
14,D21Q,3.75
15,D21M,3.83
16,D21E,4.25
17,D21G,3.94
18,D21T,4.14
19,D21N,4.07
20,D19W,3.42
21,D19H,3.7
22,D19S,3.73
23,D19N,4.04
24,D19L,3.53

row,Variant,protein stability index
1,D19A,3.97
2,D19G,4.36
3,D19Q,3.83
4,D19I,3.86
5,D19P,3.65
6,D19Y,3.93
7,D19F,3
8,D19C,4.06
9,D19V,3.56
10,D19E,4.53
11,D19K,4.5
12,D19R,3.67
13,D19M,3.05
14,D19T,3.86
15,E12L,3.23
16,E12V,3.96
17,E12R,3.92
18,E12H,3.69
19,E12M,3.87
20,E12W,2.8
21,E12P,4.53
22,E12A,3.74
23,E12S,4.17
24,E12F,3.63

row,Variant,protein stability index
1,E12C,2.82
2,E12Q,4.28
3,E12G,4.2
4,E12Y,3.12
5,E12D,4.32
6,E12I,3.69
7,E12N,4.37
8,E12K,4.29
9,E12T,4.24
10,F7V,4.92
11,F7E,5.24
12,F7A,5.3
13,F7T,5.27
14,F7Q,5.15
15,F7G,5.22
16,F7P,4.49
17,F7M,4.48
18,F7N,5.13
19,F7S,5.41
20,F7H,4.57
21,F7W,3.9
22,F7L,4.53
23,F7D,5.21
24,F7K,5.18

row,Variant,protein stability index
1,F7I,4.21
2,F7C,5.09
3,F7Y,4.55
4,F7R,5.71
5,G6C,3
6,G6Q,4.17
7,G6S,3.89
8,G6Y,1.71
9,G6P,4.73
10,G6T,3.57
11,G6L,2.3
12,G6A,3.34
13,G6N,4.04
14,G6F,2.58
15,G6I,3.03
16,G6H,3.71
17,G6V,2.55
18,G6D,4.85
19,G6W,2.32
20,G6K,4.05
21,G6E,4.2
22,G6M,3.12
23,G6R,3.9
24,E18G,3.96

row,Variant,protein stability index
1,E18P,4.51
2,E18W,2.52
3,E18S,3.71
4,E18D,4.34
5,E18L,3.24
6,E18H,3.92
7,E18I,2.67
8,E18F,2.79
9,E18T,3.44
10,E18Y,2.95
11,E18V,3.35
12,E18Q,3.98
13,E18N,4.06
14,E18K,3.82
15,E18R,2.87
16,E18M,3.59
17,E18C,3.56
18,E18A,3.66
19,A16P,4.33
20,A16L,4.04
21,A16H,4.37
22,A16R,4.14
23,A16T,4.57
24,A16K,4.36

row,Variant,protein stability index
1,A16Y,3.93
2,A16Q,4.52
3,A16C,4.47
4,A16M,4.1
5,A16N,4.51
6,A16D,4.6
7,A16W,3.41
8,A16V,3.47
9,A16G,3.94
10,A16F,3.92
11,A16E,5.02
12,A16I,4
13,A16S,4.19
14,V5R,4.82
15,V5W,3.68
16,V5Y,4.09
17,V5S,4.86
18,V5K,4.65
19,V5F,4.34
20,V5L,4.55
21,V5D,4.65
22,V5P,4.99
23,V5C,4.08
24,V5H,4.76

row,Variant,protein stability index
1,V5E,4.47
2,V5Q,4.65
3,V5N,4.36
4,V5G,4.19
5,V5A,4.95
6,V5T,4.96
7,V5M,4.51
8,V5I,4.38
9,N11D,4.75
10,N11R,4.18
11,N11H,4.21
12,N11E,4.88
13,N11Y,3.25
14,N11W,2.58
15,N11M,3.68
16,N11I,3.31
17,N11A,4.45
18,N11P,4.23
19,N11F,3.62
20,N11G,4.29
21,N11L,3.78
22,N11K,4.17
23,N11Q,4.38
24,N11S,4.21

row,Variant,protein stability index
1,N11T,4.58
2,N11C,4.06
3,N11V,3.45
4,L14N,5.06
5,L14H,5.1
6,L14A,4.71
7,L14W,4.05
8,L14I,4.71
9,L14T,4.98
10,L14R,4.57
11,L14Q,4.88
12,L14S,4.47
13,L14C,3.86
14,L14K,4.48
15,L14E,4.51
16,L14D,4.89
17,L14M,4.61
18,L14F,4
19,L14Y,4.49
20,L14P,4.76
21,L14V,4.5
22,L14G,4.9
23,D9T,4.2
24,D9L,3.09

row,Variant,protein stability index
1,D9M,3.86
2,D9E,4.25
3,D9G,4.39
4,D9V,2.67
5,D9F,3.52
6,D9A,3.99
7,D9Y,3.44
8,D9C,3.13
9,D9N,4.31
10,D9Q,4.22
11,D9S,3.45
12,D9I,2.49
13,D9H,4.08
14,D9P,4.15
15,D9R,4.05
16,D9W,2.7
17,D9K,4.19
18,N15Q,4.28
19,N15E,4.14
20,N15G,4.78
21,N15A,4.44
22,N15F,3.72
23,N15K,4.77
24,N15I,4.01

row,Variant,protein stability index
1,N15S,4.15
2,N15P,5
3,N15C,4.32
4,N15M,4.39
5,N15R,3.64
6,N15W,2.92
7,N15V,4.7
8,N15L,4.04
9,N15Y,3.62
10,N15T,4.78
11,N15H,4.08
12,N15D,4.77
13,L22D,4.68
14,L22E,5.45
15,L22C,4.62
16,L22A,5.06
17,L22F,4.49
18,L22I,4.74
19,L22G,5.28
20,L22K,4.86
21,L22H,4.96
22,L22M,4.72
